Experimental data taken from patent US20240018502A1.

The binders below were run against plasma purified human complement protein C3 (human) (UniProt P01024) (assay: cell-based or functional assay).
Sequence of plasma purified human complement protein C3 (human) (P01024 23-667, chain 1 of 2): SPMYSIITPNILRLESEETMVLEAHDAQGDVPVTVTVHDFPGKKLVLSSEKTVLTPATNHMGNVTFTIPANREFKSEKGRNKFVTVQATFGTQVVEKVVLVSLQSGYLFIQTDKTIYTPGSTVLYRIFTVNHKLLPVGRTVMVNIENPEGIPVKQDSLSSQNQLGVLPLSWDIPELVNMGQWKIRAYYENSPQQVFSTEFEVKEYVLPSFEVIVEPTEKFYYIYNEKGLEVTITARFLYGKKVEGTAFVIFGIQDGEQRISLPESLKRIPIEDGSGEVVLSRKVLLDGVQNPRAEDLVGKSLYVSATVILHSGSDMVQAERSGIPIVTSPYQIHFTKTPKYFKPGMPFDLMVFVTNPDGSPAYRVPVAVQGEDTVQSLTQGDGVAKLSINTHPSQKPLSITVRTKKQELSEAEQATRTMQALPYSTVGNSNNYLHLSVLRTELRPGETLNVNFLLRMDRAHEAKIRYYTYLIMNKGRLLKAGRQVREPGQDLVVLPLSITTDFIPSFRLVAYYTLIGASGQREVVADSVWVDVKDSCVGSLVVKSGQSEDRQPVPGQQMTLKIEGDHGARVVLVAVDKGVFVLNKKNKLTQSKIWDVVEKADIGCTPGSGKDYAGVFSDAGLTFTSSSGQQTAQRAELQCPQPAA
Sequence of plasma purified human complement protein C3 (human) (P01024 672-1663, chain 2 of 2): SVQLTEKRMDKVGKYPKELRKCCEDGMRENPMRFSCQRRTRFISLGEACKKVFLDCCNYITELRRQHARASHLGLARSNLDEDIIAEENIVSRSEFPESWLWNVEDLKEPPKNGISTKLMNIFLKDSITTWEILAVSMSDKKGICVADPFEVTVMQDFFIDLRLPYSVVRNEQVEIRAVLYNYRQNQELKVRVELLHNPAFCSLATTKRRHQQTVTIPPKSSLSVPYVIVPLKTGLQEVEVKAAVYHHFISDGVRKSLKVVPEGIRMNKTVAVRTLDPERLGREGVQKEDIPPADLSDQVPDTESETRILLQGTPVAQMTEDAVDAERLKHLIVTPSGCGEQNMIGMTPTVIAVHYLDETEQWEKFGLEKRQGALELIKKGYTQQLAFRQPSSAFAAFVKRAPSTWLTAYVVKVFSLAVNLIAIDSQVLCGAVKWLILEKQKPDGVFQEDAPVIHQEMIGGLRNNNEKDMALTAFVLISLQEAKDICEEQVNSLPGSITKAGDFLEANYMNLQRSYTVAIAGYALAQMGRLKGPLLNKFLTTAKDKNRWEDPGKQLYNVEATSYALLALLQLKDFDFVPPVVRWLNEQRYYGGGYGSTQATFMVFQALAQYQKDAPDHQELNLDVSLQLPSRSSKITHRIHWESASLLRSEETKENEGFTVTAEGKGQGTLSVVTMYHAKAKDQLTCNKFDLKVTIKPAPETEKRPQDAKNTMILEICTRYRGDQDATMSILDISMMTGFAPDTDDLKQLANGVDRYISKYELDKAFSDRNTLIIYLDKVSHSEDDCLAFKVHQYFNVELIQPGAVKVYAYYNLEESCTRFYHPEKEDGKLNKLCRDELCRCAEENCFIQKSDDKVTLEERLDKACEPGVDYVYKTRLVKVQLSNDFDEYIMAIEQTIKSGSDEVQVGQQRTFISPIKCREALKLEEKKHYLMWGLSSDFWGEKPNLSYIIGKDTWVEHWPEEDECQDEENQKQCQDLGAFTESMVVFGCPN

Row | Binder | EC50 of hC3 cleavage
1 | MTSP-1 Q38E/H40R/I41H/D60bE/F97D/F99L/C122S/Q192G (enzyme) VVGGTDADEGEWPWQVSLHALGEGRHCGASLISPNWLVSAAHCYIDERGFRYSDPTQWTAFLGLHDQSQRSAPGVQERRLKRIISHPFFNDDTLDYDIALLELEKPAEYSSMVRPISLPDASHVFPAGKAIWVTGWGHTQYGGTGALILQKGEIRVINQTTCENLLPQQITPRMMCVGFLSGGVDSCGGDSGGPLSSVEADGRIFQAGVVSWGDGCAQRNKPGVYTRLPLFRDWIKENTGV | 28.1 nM
2 | MTSP-1 Q38E/H40R/I41H/D60bK/F97D/F99L/C122S/Q175L/Q192G (enzyme) VVGGTDADEGEWPWQVSLHALGEGRHCGASLISPNWLVSAAHCYIDKRGFRYSDPTQWTAFLGLHDQSQRSAPGVQERRLKRIISHPFFNDDTLDYDIALLELEKPAEYSSMVRPISLPDASHVFPAGKAIWVTGWGHTQYGGTGALILQKGEIRVINQTTCENLLPQLITPRMMCVGFLSGGVDSCGGDSGGPLSSVEADGRIFQAGVVSWGDGCAQRNKPGVYTRLPLFRDWIKENTGV | 15.3 nM
3 | MTSP-1 Q38E/H40R/I41H/D60bN/F97D/F99L/C122S/Q192G (enzyme) VVGGTDADEGEWPWQVSLHALGEGRHCGASLISPNWLVSAAHCYIDNRGFRYSDPTQWTAFLGLHDQSQRSAPGVQERRLKRIISHPFFNDDTLDYDIALLELEKPAEYSSMVRPISLPDASHVFPAGKAIWVTGWGHTQYGGTGALILQKGEIRVINQTTCENLLPQQITPRMMCVGFLSGGVDSCGGDSGGPLSSVEADGRIFQAGVVSWGDGCAQRNKPGVYTRLPLFRDWIKENTGV | 39.5 nM
4 | MTSP-1 Q38E/H40R/I41H/D60bN/F60eT/F97D/F99L/C122S/Q175L/Q192G (enzyme) VVGGTDADEGEWPWQVSLHALGEGRHCGASLISPNWLVSAAHCYIDNRGTRYSDPTQWTAFLGLHDQSQRSAPGVQERRLKRIISHPFFNDDTLDYDIALLELEKPAEYSSMVRPISLPDASHVFPAGKAIWVTGWGHTQYGGTGALILQKGEIRVINQTTCENLLPQLITPRMMCVGFLSGGVDSCGGDSGGPLSSVEADGRIFQAGVVSWGDGCAQRNKPGVYTRLPLFRDWIKENTGV | 9.42 nM
5 | MTSP-1 I41R/ins97aV/F97D/T98P/F99L/C122S/G151N/Q175L/Q192E (enzyme) VVGGTDADEGEWPWQVSLHALGQGHRCGASLISPNWLVSAAHCYIDDRGFRYSDPTQWTAFLGLHDQSQRSAPGVQERRLKRIISHPFFNDDVPLDYDIALLELEKPAEYSSMVRPISLPDASHVFPAGKAIWVTGWGHTQYGGTNALILQKGEIRVINQTTCENLLPQLITPRMMCVGFLSGGVDSCEGDSGGPLSSVEADGRIFQAGVVSWGDGCAQRNKPGVYTRLPLFRDWIKENTGV | 187 nM
6 | MTSP-1 F97D/ins97aV/T98P/F99L/C122S/G151N/Q175L/Q192E (enzyme) VVGGTDADEGEWPWQVSLHALGQGHICGASLISPNWLVSAAHCYIDDRGFRYSDPTQWTAFLGLHDQSQRSAPGVQERRLKRIISHPFFNDDVPLDYDIALLELEKPAEYSSMVRPISLPDASHVFPAGKAIWVTGWGHTQYGGTNALILQKGEIRVINQTTCENLLPQLITPRMMCVGFLSGGVDSCEGDSGGPLSSVEADGRIFQAGVVSWGDGCAQRNKPGVYTRLPLFRDWIKENTGV | 194 nM
7 | MTSP-1 I41D/ins97aE/F97T/T98G/F99L/C122S/G151N/Q175L/Q192E/Q209L (enzyme) VVGGTDADEGEWPWQVSLHALGQGHDCGASLISPNWLVSAAHCYIDDRGFRYSDPTQWTAFLGLHDQSQRSAPGVQERRLKRIISHPFFNDTEGLDYDIALLELEKPAEYSSMVRPISLPDASHVFPAGKAIWVTGWGHTQYGGTNALILQKGEIRVINQTTCENLLPQLITPRMMCVGFLSGGVDSCEGDSGGPLSSVEADGRIFLAGVVSWGDGCAQRNKPGVYTRLPLFRDWIKENTGV | 103 nM
8 | MTSP-1 Q38E/I41S/D60bV/F60eK/F97T/ins97aE/T98G/F99L/C122S/Q175L/Q192I (enzyme) VVGGTDADEGEWPWQVSLHALGEGHSCGASLISPNWLVSAAHCYIDVRGKRYSDPTQWTAFLGLHDQSQRSAPGVQERRLKRIISHPFFNDTEGLDYDIALLELEKPAEYSSMVRPISLPDASHVFPAGKAIWVTGWGHTQYGGTGALILQKGEIRVINQTTCENLLPQLITPRMMCVGFLSGGVDSCIGDSGGPLSSVEADGRIFQAGVVSWGDGCAQRNKPGVYTRLPLFRDWIKENTGV | 20.4 nM
9 | MTSP-1 H40R/I41H/F97D/ins97aV/T98P/F99L/C122S/Q175R/Q192G/D217E/K224R (enzyme) VVGGTDADEGEWPWQVSLHALGQGRHCGASLISPNWLVSAAHCYIDDRGFRYSDPTQWTAFLGLHDQSQRSAPGVQERRLKRIISHPFFNDDVPLDYDIALLELEKPAEYSSMVRPISLPDASHVFPAGKAIWVTGWGHTQYGGTGALILQKGEIRVINQTTCENLLPQRITPRMMCVGFLSGGVDSCGGDSGGPLSSVEADGRIFQAGVVSWGEGCAQRNRPGVYTRLPLFRDWIKENTGV | 65.8 nM
10 | MTSP-1 Q38E/I41S/D60bH/F60eI/F97T/ins97aE/T98G/F99L/C122S/Q175L/Q192V (enzyme) VVGGTDADEGEWPWQVSLHALGEGHSCGASLISPNWLVSAAHCYIDHRGIRYSDPTQWTAFLGLHDQSQRSAPGVQERRLKRIISHPFFNDTEGLDYDIALLELEKPAEYSSMVRPISLPDASHVFPAGKAIWVTGWGHTQYGGTGALILQKGEIRVINQTTCENLLPQLITPRMMCVGFLSGGVDSCVGDSGGPLSSVEADGRIFQAGVVSWGDGCAQRNKPGVYTRLPLFRDWIKENTGV | 10.4 nM

Other lines, results leading:

Row | EC50 of hC3 cleavage | Binder
11 | 11.9 nM | MTSP-1 Q38G/H40R/I41H/D60bN/F60eT/F97D/F99L/C122S/Q175L/Q192G (enzyme) VVGGTDADEGEWPWQVSLHALGGGRHCGASLISPNWLVSAAHCYIDNRGTRYSDPTQWTAFLGLHDQSQRSAPGVQERRLKRIISHPFFNDDTLDYDIALLELEKPAEYSSMVRPISLPDASHVFPAGKAIWVTGWGHTQYGGTGALILQKGEIRVINQTTCENLLPQLITPRMMCVGFLSGGVDSCGGDSGGPLSSVEADGRIFQAGVVSWGDGCAQRNKPGVYTRLPLFRDWIKENTGV
12 | 20.6 nM | MTSP-1 Q38G/H40R/I41H/D60bK/F97D/F99L/C122S/Q175L/Q192G (enzyme) VVGGTDADEGEWPWQVSLHALGGGRHCGASLISPNWLVSAAHCYIDKRGFRYSDPTQWTAFLGLHDQSQRSAPGVQERRLKRIISHPFFNDDTLDYDIALLELEKPAEYSSMVRPISLPDASHVFPAGKAIWVTGWGHTQYGGTGALILQKGEIRVINQTTCENLLPQLITPRMMCVGFLSGGVDSCGGDSGGPLSSVEADGRIFQAGVVSWGDGCAQRNKPGVYTRLPLFRDWIKENTGV
13 | 0.867 nM | MTSP-1 Q38G/H40R/I41H/D60bN/F97D/F99L/C122S/Q175L/Q192G (enzyme) VVGGTDADEGEWPWQVSLHALGGGRHCGASLISPNWLVSAAHCYIDNRGFRYSDPTQWTAFLGLHDQSQRSAPGVQERRLKRIISHPFFNDDTLDYDIALLELEKPAEYSSMVRPISLPDASHVFPAGKAIWVTGWGHTQYGGTGALILQKGEIRVINQTTCENLLPQLITPRMMCVGFLSGGVDSCGGDSGGPLSSVEADGRIFQAGVVSWGDGCAQRNKPGVYTRLPLFRDWIKENTGV
14 | 22.5 nM | MTSP-1 Q38R/I41S/D60bH/F60eV/ins97aE/F97T/T98G/F99L/C122S/G151N/Q175L/Q192E (enzyme) VVGGTDADEGEWPWQVSLHALGRGHSCGASLISPNWLVSAAHCYIDHRGVRYSDPTQWTAFLGLHDQSQRSAPGVQERRLKRIISHPFFNDTEGLDYDIALLELEKPAEYSSMVRPISLPDASHVFPAGKAIWVTGWGHTQYGGTNALILQKGEIRVINQTTCENLLPQLITPRMMCVGFLSGGVDSCEGDSGGPLSSVEADGRIFQAGVVSWGDGCAQRNKPGVYTRLPLFRDWIKENTGV
15 | 35.2 nM | MTSP-1 Q38R/I41S/D60bH/F60eV/F97T/ins97aE/T98G/F99L/C122S/Q175L/Q192E (enzyme) VVGGTDADEGEWPWQVSLHALGRGHSCGASLISPNWLVSAAHCYIDHRGVRYSDPTQWTAFLGLHDQSQRSAPGVQERRLKRIISHPFFNDTEGLDYDIALLELEKPAEYSSMVRPISLPDASHVFPAGKAIWVTGWGHTQYGGTGALILQKGEIRVINQTTCENLLPQLITPRMMCVGFLSGGVDSCEGDSGGPLSSVEADGRIFQAGVVSWGDGCAQRNKPGVYTRLPLFRDWIKENTGV
16 | 38.5 nM | MTSP-1 ins97aV/F97D/T98P/F99L/C122S/G151N/Q175L/Q192G (enzyme) VVGGTDADEGEWPWQVSLHALGQGHICGASLISPNWLVSAAHCYIDDRGFRYSDPTQWTAFLGLHDQSQRSAPGVQERRLKRIISHPFFNDDVPLDYDIALLELEKPAEYSSMVRPISLPDASHVFPAGKAIWVTGWGHTQYGGTNALILQKGEIRVINQTTCENLLPQLITPRMMCVGFLSGGVDSCGGDSGGPLSSVEADGRIFQAGVVSWGDGCAQRNKPGVYTRLPLFRDWIKENTGV
17 | 27.3 nM | MTSP-1 Q38R/I41S/D60bH/F60eI/ins97aE/F97T/T98G/F99L/C122S/Q175L/Q192E (enzyme) VVGGTDADEGEWPWQVSLHALGRGHSCGASLISPNWLVSAAHCYIDHRGIRYSDPTQWTAFLGLHDQSQRSAPGVQERRLKRIISHPFFNDTEGLDYDIALLELEKPAEYSSMVRPISLPDASHVFPAGKAIWVTGWGHTQYGGTGALILQKGEIRVINQTTCENLLPQLITPRMMCVGFLSGGVDSCEGDSGGPLSSVEADGRIFQAGVVSWGDGCAQRNKPGVYTRLPLFRDWIKENTGV
18 | 12 nM | MTSP-1 Q38H/I41A/D60bA/F60eR/F97T/ins97aE/T98G/F99L/C122S/Q175L/Q192E (enzyme) VVGGTDADEGEWPWQVSLHALGHGHACGASLISPNWLVSAAHCYIDARGRRYSDPTQWTAFLGLHDQSQRSAPGVQERRLKRIISHPFFNDTEGLDYDIALLELEKPAEYSSMVRPISLPDASHVFPAGKAIWVTGWGHTQYGGTGALILQKGEIRVINQTTCENLLPQLITPRMMCVGFLSGGVDSCEGDSGGPLSSVEADGRIFQAGVVSWGDGCAQRNKPGVYTRLPLFRDWIKENTGV
19 | 63.3 nM | MTSP-1 Q38R/I41E/ins97aE/F97T/T98G/F99L/C122S/Q175L/Q192T (enzyme) VVGGTDADEGEWPWQVSLHALGRGHECGASLISPNWLVSAAHCYIDDRGFRYSDPTQWTAFLGLHDQSQRSAPGVQERRLKRIISHPFFNDTEGLDYDIALLELEKPAEYSSMVRPISLPDASHVFPAGKAIWVTGWGHTQYGGTGALILQKGEIRVINQTTCENLLPQLITPRMMCVGFLSGGVDSCTGDSGGPLSSVEADGRIFQAGVVSWGDGCAQRNKPGVYTRLPLFRDWIKENTGV
20 | 2.37 nM | MTSP-1 Q38H/I41A/D60bV/F60eR/Y60gW/ins97aE/F97T/T98G/F99L/C122S/Q175L/Q192D (enzyme) VVGGTDADEGEWPWQVSLHALGHGHACGASLISPNWLVSAAHCYIDVRGRRWSDPTQWTAFLGLHDQSQRSAPGVQERRLKRIISHPFFNDTEGLDYDIALLELEKPAEYSSMVRPISLPDASHVFPAGKAIWVTGWGHTQYGGTGALILQKGEIRVINQTTCENLLPQLITPRMMCVGFLSGGVDSCDGDSGGPLSSVEADGRIFQAGVVSWGDGCAQRNKPGVYTRLPLFRDWIKENTGV
21 | 7.46 nM | MTSP-1 Q38H/I41S/D60bA/F60eV/Y60gF/F97T/ins97aE/T98G/F99L/C122S/Q175L/Q192T (enzyme) VVGGTDADEGEWPWQVSLHALGHGHSCGASLISPNWLVSAAHCYIDARGVRFSDPTQWTAFLGLHDQSQRSAPGVQERRLKRIISHPFFNDTEGLDYDIALLELEKPAEYSSMVRPISLPDASHVFPAGKAIWVTGWGHTQYGGTGALILQKGEIRVINQTTCENLLPQLITPRMMCVGFLSGGVDSCTGDSGGPLSSVEADGRIFQAGVVSWGDGCAQRNKPGVYTRLPLFRDWIKENTGV
